Reference: article PMC2686087

How the values were obtained:
[1] = molecular target: CaV2.2/α2δ-2 calcium channel coexpressed with β2a-SH3 (1–135) and β2a-GK (226–442) (UniProt Q05152)
[2] = molecular target: CaV2.2/α2δ-2 calcium channel coexpressed with wild-type β2a (UniProt Q05152)
[3] = molecular target: CaV2.2/α2δ-2 calcium channel coexpressed with β2a-ΔvHOOK (UniProt Q05152)
[4] = molecular target: CaV2.2/α2δ-2 calcium channel coexpressed with wild-type β2a (UniProt Q05152); remark: listed apart in the source

In the case of “Gβγ (from UniProt P62873 1-340; P59768 1-71) (complex)”, the basal facilitation (P2/P1) of peak IBa at +10 mV in the absence of agonist [1] is reported as 2.61, the time constant for the removal of tonic inhibition (τdissoc) at +120 mV [1] is reported as 29.1 ms and the dissociation rate of Gβγ at +120 mV (from τdissoc) [2] is reported as 46.9 s⁻¹. For the same substance, the time constant for rebinding of Gβγ at −100 mV (reinhibition after the prepulse) [2] was 248 ms, the dissociation rate of Gβγ at +120 mV (from τdissoc) [3] was 29.7 s⁻¹ and the time constant for rebinding of Gβγ at −100 mV (reinhibition after the prepulse) [3] was 296 ms. For the same substance, the basal facilitation (P2/P1) ratio at +10 mV without agonist [4] was 1.43.
